Test results reported in patent publication US20230203202A1 (DRAGONFLY THERAPEUTICS, published 2023).

T1: human 5T4 on the cell surface (human, UniProt Q13641 32-420)
T1 construct: whole, on cells; also called h5T4; TPBG
T1 sequence (looked up): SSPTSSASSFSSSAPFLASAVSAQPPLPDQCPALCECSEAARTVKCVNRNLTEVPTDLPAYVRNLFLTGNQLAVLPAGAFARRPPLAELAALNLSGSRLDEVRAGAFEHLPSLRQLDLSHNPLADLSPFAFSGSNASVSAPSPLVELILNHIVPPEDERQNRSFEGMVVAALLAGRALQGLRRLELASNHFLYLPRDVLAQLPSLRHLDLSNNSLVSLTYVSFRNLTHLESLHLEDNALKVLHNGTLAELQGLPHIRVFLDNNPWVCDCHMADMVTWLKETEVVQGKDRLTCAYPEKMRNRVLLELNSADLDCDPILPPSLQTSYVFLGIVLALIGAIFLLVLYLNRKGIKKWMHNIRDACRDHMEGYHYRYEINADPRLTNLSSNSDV

B1: AB1885-TriNKET® (bispecific antibody, human IgG1, kappa)
chain: DIQLTQSPSSLSASVGDRVTITCRASQSVTTSNYNYMHWFQQKPGKAPKLLIKFASNLESGVPSRFSGSGSGTDFTLTISSLQPEDFATYYCQHSWEIPWTFGCGTKVEIKGGGGSGGGGSGGGGSGGGGSQVQLVESGGGLVKPGGSLRLSCAASRFTFSDFGMHWVRQAPGKCLEWIAYISSGSSTIYYADTVKGRFTISRDNAKNSLYLQMNSLRAEDTAVYYCASSQSYYRGTLDYWGQGTTVTVSSGSDKTHTCPPCPAPELLGGPSVFLFPPKPKDTLMISRTPEVTCVVVDVSHEDPEVKFNWYVDGVEVHNAKTKPREEQYNSTYRVVSVLTVLHQDWLNGKEYKCKVSNKALPAPIEKTISKAKGQPREPRVYTLPPCRDELTKNQVSLTCLVKGFYPSDIAVEWESNGQPENNYKTTPPVLVSDGSFTLYSKLTVDKSRWQQGNVFSCSVMHEALHNHYTQKSLSLSPG
heavy: EVQLVESGGGLVKPGGSLRLSCAASGFTFSSYSMNWVRQAPGKGLEWVSSISSSSSYIYYADSVKGRFTISRDNAKNSLYLQMNSLRAEDTAVYYCARGAPIGAAAGWFDPWGQGTLVTVSSASTKGPSVFPLAPSSKSTSGGTAALGCLVKDYFPEPVTVSWNSGALTSGVHTFPAVLQSSGLYSLSSVVTVPSSSLGTQTYICNVNHKPSNTKVDKKVEPKSCDKTHTCPPCPAPELLGGPSVFLFPPKPKDTLMISRTPEVTCVVVDVSHEDPEVKFNWYVDGVEVHNAKTKPREEQYNSTYRVVSVLTVLHQDWLNGKEYKCKVSNKALPAPIEKTISKAKGQPREPQVCTLPPSRDELTENQVSLTCLVKGFYPSDIAVEWESNGQPENNYKTTPPVLDSDGSFFLYSWLTVDKSRWQQGNVFSCSVMHEALHNHYTQKSLSLSPG
light: DIQMTQSPSSVSASVGDRVTITCRASQGISSWLAWYQQKPGKAPKLLIYAASSLQSGVPSRFSGSGSGTDFTLTISSLQPEDFATYYCQQGVSFPRTFGGGTKVEIKRTVAAPSVFIFPPSDEQLKSGTASVVCLLNNFYPREAKVQWKVDNALQSGNSQESVTEQDSKDSTYSLSSTLTLSKADYEKHKVYACEVTHQGLSSPVTKSFNRGEC
notes: F3′ format; also called AB1885-VL-VH TriNKET®; 10F10-IGHV3-11*01 BM2
B2: AB1892-TriNKET® (bispecific antibody, human IgG1, kappa)
chain: DIQLTQSPSSLSASVGDRVTITCRASQSVTTSNYNYMHWFQQKPGKAPKLLIKFASNLESGVPSRFSGSGSGTDFTLTISSLQPEDFATYYCQHSWEIPWTFGCGTKVEIKGGGGSGGGGSGGGGSGGGGSEVQLLESGGGLVQPGGSLRLSCAASRFTFSDFGMHWVRQAPGKCLEWVSYISSGSSTIYYADTVKGRFTISRDNSKNTLYLQMNSLRAEDTAVYYCASSQSYYRGTLDYWGQGTTVTVSSGSDKTHTCPPCPAPELLGGPSVFLFPPKPKDTLMISRTPEVTCVVVDVSHEDPEVKFNWYVDGVEVHNAKTKPREEQYNSTYRVVSVLTVLHQDWLNGKEYKCKVSNKALPAPIEKTISKAKGQPREPRVYTLPPCRDELTKNQVSLTCLVKGFYPSDIAVEWESNGQPENNYKTTPPVLVSDGSFTLYSKLTVDKSRWQQGNVFSCSVMHEALHNHYTQKSLSLSPG
heavy: EVQLVESGGGLVKPGGSLRLSCAASGFTFSSYSMNWVRQAPGKGLEWVSSISSSSSYIYYADSVKGRFTISRDNAKNSLYLQMNSLRAEDTAVYYCARGAPIGAAAGWFDPWGQGTLVTVSSASTKGPSVFPLAPSSKSTSGGTAALGCLVKDYFPEPVTVSWNSGALTSGVHTFPAVLQSSGLYSLSSVVTVPSSSLGTQTYICNVNHKPSNTKVDKKVEPKSCDKTHTCPPCPAPELLGGPSVFLFPPKPKDTLMISRTPEVTCVVVDVSHEDPEVKFNWYVDGVEVHNAKTKPREEQYNSTYRVVSVLTVLHQDWLNGKEYKCKVSNKALPAPIEKTISKAKGQPREPQVCTLPPSRDELTENQVSLTCLVKGFYPSDIAVEWESNGQPENNYKTTPPVLDSDGSFFLYSWLTVDKSRWQQGNVFSCSVMHEALHNHYTQKSLSLSPG
light: DIQMTQSPSSVSASVGDRVTITCRASQGISSWLAWYQQKPGKAPKLLIYAASSLQSGVPSRFSGSGSGTDFTLTISSLQPEDFATYYCQQGVSFPRTFGGGTKVEIKRTVAAPSVFIFPPSDEQLKSGTASVVCLLNNFYPREAKVQWKVDNALQSGNSQESVTEQDSKDSTYSLSSTLTLSKADYEKHKVYACEVTHQGLSSPVTKSFNRGEC
notes: F3′ format; also called AB1892-VL-VH TriNKET®; 10F10-IGHV3-23*03 BM1
B3: AB1886-TriNKET® (bispecific antibody, human IgG1, kappa)
chain: DIQLTQSPSSLSASVGDRVTITCRASQSVTTSNYNYMHWFQQKPGKAPKLLIKFASNLESGVPSRFSGSGSGTDFTLTISSLQPEDFATYYCQHSWEIPWTFGCGTKVEIKGGGGSGGGGSGGGGSGGGGSEVQLVESGGGLVKPGGSLRLSCAASRFTFSDFGMHWIRQAPGKCLEWVSYISSGSSTIYYADTVKGRFTISRDNAKNSLYLQMNSLRAEDTAVYYCASSQSYYRGTLDYWGQGTTVTVSSGSDKTHTCPPCPAPELLGGPSVFLFPPKPKDTLMISRTPEVTCVVVDVSHEDPEVKFNWYVDGVEVHNAKTKPREEQYNSTYRVVSVLTVLHQDWLNGKEYKCKVSNKALPAPIEKTISKAKGQPREPRVYTLPPCRDELTKNQVSLTCLVKGFYPSDIAVEWESNGQPENNYKTTPPVLVSDGSFTLYSKLTVDKSRWQQGNVFSCSVMHEALHNHYTQKSLSLSPG
heavy: EVQLVESGGGLVKPGGSLRLSCAASGFTFSSYSMNWVRQAPGKGLEWVSSISSSSSYIYYADSVKGRFTISRDNAKNSLYLQMNSLRAEDTAVYYCARGAPIGAAAGWFDPWGQGTLVTVSSASTKGPSVFPLAPSSKSTSGGTAALGCLVKDYFPEPVTVSWNSGALTSGVHTFPAVLQSSGLYSLSSVVTVPSSSLGTQTYICNVNHKPSNTKVDKKVEPKSCDKTHTCPPCPAPELLGGPSVFLFPPKPKDTLMISRTPEVTCVVVDVSHEDPEVKFNWYVDGVEVHNAKTKPREEQYNSTYRVVSVLTVLHQDWLNGKEYKCKVSNKALPAPIEKTISKAKGQPREPQVCTLPPSRDELTENQVSLTCLVKGFYPSDIAVEWESNGQPENNYKTTPPVLDSDGSFFLYSWLTVDKSRWQQGNVFSCSVMHEALHNHYTQKSLSLSPG
light: DIQMTQSPSSVSASVGDRVTITCRASQGISSWLAWYQQKPGKAPKLLIYAASSLQSGVPSRFSGSGSGTDFTLTISSLQPEDFATYYCQQGVSFPRTFGGGTKVEIKRTVAAPSVFIFPPSDEQLKSGTASVVCLLNNFYPREAKVQWKVDNALQSGNSQESVTEQDSKDSTYSLSSTLTLSKADYEKHKVYACEVTHQGLSSPVTKSFNRGEC
notes: F3′ format; also called AB1886-VL-VH TriNKET®; 10F10-IGHV3-11*01 BM1
B4: AB1887-TriNKET® (bispecific antibody, human IgG1, kappa)
chain: DIQLTQSPSSLSASVGDRVTITCRASQSVTTSNYNYMHWFQQKPGKAPKLLIKFASNLESGVPSRFSGSGSGTDFTLTISSLQPEDFATYYCQHSWEIPWTFGCGTKVEIKGGGGSGGGGSGGGGSGGGGSEVQLVESGGGLVKPGGSLRLSCAASRFTFSDFGMHWVRQAPGKCLEWIAYISSGSSTIYYADTVKGRFTISRDNAKNSLYLQMNSLRAEDTAVYYCASSQSYYRGTLDYWGQGTTVTVSSGSDKTHTCPPCPAPELLGGPSVFLFPPKPKDTLMISRTPEVTCVVVDVSHEDPEVKFNWYVDGVEVHNAKTKPREEQYNSTYRVVSVLTVLHQDWLNGKEYKCKVSNKALPAPIEKTISKAKGQPREPRVYTLPPCRDELTKNQVSLTCLVKGFYPSDIAVEWESNGQPENNYKTTPPVLVSDGSFTLYSKLTVDKSRWQQGNVFSCSVMHEALHNHYTQKSLSLSPG
heavy: EVQLVESGGGLVKPGGSLRLSCAASGFTFSSYSMNWVRQAPGKGLEWVSSISSSSSYIYYADSVKGRFTISRDNAKNSLYLQMNSLRAEDTAVYYCARGAPIGAAAGWFDPWGQGTLVTVSSASTKGPSVFPLAPSSKSTSGGTAALGCLVKDYFPEPVTVSWNSGALTSGVHTFPAVLQSSGLYSLSSVVTVPSSSLGTQTYICNVNHKPSNTKVDKKVEPKSCDKTHTCPPCPAPELLGGPSVFLFPPKPKDTLMISRTPEVTCVVVDVSHEDPEVKFNWYVDGVEVHNAKTKPREEQYNSTYRVVSVLTVLHQDWLNGKEYKCKVSNKALPAPIEKTISKAKGQPREPQVCTLPPSRDELTENQVSLTCLVKGFYPSDIAVEWESNGQPENNYKTTPPVLDSDGSFFLYSWLTVDKSRWQQGNVFSCSVMHEALHNHYTQKSLSLSPG
light: DIQMTQSPSSVSASVGDRVTITCRASQGISSWLAWYQQKPGKAPKLLIYAASSLQSGVPSRFSGSGSGTDFTLTISSLQPEDFATYYCQQGVSFPRTFGGGTKVEIKRTVAAPSVFIFPPSDEQLKSGTASVVCLLNNFYPREAKVQWKVDNALQSGNSQESVTEQDSKDSTYSLSSTLTLSKADYEKHKVYACEVTHQGLSSPVTKSFNRGEC
notes: F3′ format; also called AB1887-VL-VH TriNKET®; 10F10-IGHV3-21*05 BM2
B5: AB1011 (antibody, V domains shown)
VH: EVQLVESGGGLVKPGGSLRLSCAASGFTFSDYGMHWVRQAPGKGLEWVSYISSGSSTFYYADTVKGRFTISRDNAKNSLYLQMNSLRAEDTAVYYCGSSQSYYRGTMDYWGQGTTVTVSS
VL: DIQLTQSPSSLSASVGDRVTITCRASQGVSTSTYTYMHWFQQKPGKAPKLLIKFASNLESGVPSRFSGSGSGTDFTLTISSLQPEDFATYYCQHSWEIPWTFGGGTKVEIK
notes: member of the group m33
B6: AB1012 (antibody, V domains shown)
VH: EVQLVESGGGLVKPGGSLRLSCAASGFTFSDYGMHWVRQAPGKGLEWVSYISSGSSTFYYADTVKGRFTISRDNAKNSLYLQMNSLRAEDTAVYYCGSSQSYYRGTMDYWGQGTTVTVSS
VL: DIQLTQSPSSLSASVGDRVTITCRASQGVSTSTYTYLHWFQQKPGKAPKLLIKFASNLESGVPSRFSGSGSGTDFTLTISSLQPEDFATYYCQHSWEIPWTFGGGTKVEIK
notes: member of the group m33
B7: AB1013 (antibody, V domains shown)
VH: EVQLVESGGGLVKPGGSLRLSCAASGFTFSDYGMHWVRQAPGKGLEWVSYISSGSSTFYYADTVKGRFTISRDNAKNSLYLQMNSLRAEDTAVYYCGSSQSYYRGTMDYWGQGTTVTVSS
VL: DIQLTQSPSSLSASVGDRVTITCRASQGVSTSTYTYVHWFQQKPGKAPKLLIKFASNLESGVPSRFSGSGSGTDFTLTISSLQPEDFATYYCQHSWEIPWTFGGGTKVEIK
notes: member of the group m33
B8: AB1014 (antibody, V domains shown)
VH: EVQLVESGGGLVKPGGSLRLSCAASGFTFSDYGMHWVRQAPGKGLEWVSYISSGSSTFYYADTVKGRFTISRDNAKNSLYLQMNSLRAEDTAVYYCGSSQSYYRGTIDYWGQGTTVTVSS
VL: DIQLTQSPSSLSASVGDRVTITCRASQGVSTSTYTYMHWFQQKPGKAPKLLIKFASNLESGVPSRFSGSGSGTDFTLTISSLQPEDFATYYCQHSWEIPWTFGGGTKVEIK
notes: member of the group m33

Key:
[1] = target: T1, human 5T4 on the cell surface; experiment: cell binding assay on 5T4-expressing tumor cells (cell line not given)
[2] = target: T1, human 5T4 on the cell surface; experiment: flow cytometry on H1975 cells, FOB

Binder	EC50 [1] [nM]	Max Fold Over Background (FOB) [1] [fold over background]	binding result [2]
B1	5.37	68	
B2	4.21	60	
B3	5.65	73.5	
B4	10.2	75	
B5			binds
B6			binds
B7			binds
B8			binds
